Measurements taken from patent US20130280318A1, “Tissue Scaffolds for Controlled Release of Active Agents” (The Trustees of Columbia University in the City of New York, priority 2010, published 2013).

Test system: Chondrocytes
Test: Chondrocyte growth on scaffolds (total DNA, Picogreen)
Assay type: cell-based, bovine
Settings: TGF-β3 released from tissue scaffold
Experimental: Chondrocytes enzymatically digested from bovine calves (6×10^4 cells/cm^2) were cultured on scaffolds in serum-free ITS+ media. Experimental group included PLGA-TGFβ3 scaffolds, while cells cultured on PLGA and on PLGA with exogenous TGF-β3 (1 ng/mL) served as controls. Viability was evaluated with confocal microscopy (n=3).
Total DNA (n=6) was quantified by Picogreen Assay. Glycosaminoglycan (GAG) and collagen syntheses (n=6) were assessed by dimethylmethylene blue (DMMB) and Sircol assays, respectively. Gene expressions (Col I, II, and X) were analyzed by RT-PCR (n=4).

B1: transforming growth factor-beta 3 (protein, UniProt P10600 301-412, looked up)
Transforming growth factor …: ALDTNYCFRNLEENCCVRPLYIDFRQDLGWKWVHEPKGYYANFCSGPCPYLRSADTTHSTVLGLYNTLNPEASASPCCVPQDLEPLTILYYVGRTPKVEQLSNMVVKSCKCS
modifications: Transforming growth factor beta-3
With B1 as the molecule, how does the “bioactivity of released TGF-β3 (chondrocyte proliferation and biosynthesis)” value read?
The value was “bioactive”.
